# In patent US20250346644A1 (LATTICON SUZHOU BIOPHARMACEUTICALS, published 2025):
# Residue numbers refer to the chain shown, from its start. Names may count otherwise.
# B1: hS4B6-H6K3-hu03 (antibody, V domains shown)
# VH: QVQLVQSGAEVKKPGATVKISCKVSGDTITDYYLHWVRQAPGQGLEWIGRIDPEDDSTKYAENFKNRVTITADTSTNTAYMELSSLRSEDTAVYYCTTVTFYYSRELRWFAYWGQGTLVTVSS
# VL: DIVLTQSPATLSLSPGERATLSCQASQDIGNYLSWYQQKPGQAPRLLIYSATSLADGIPARFSGSRSGTDYTLTISSLEPEDFAVYYCLQHYSTPYTFGQGTKLEIK
# notes: H6K3 with heavy chain A31D
# B2: hS4B6-H6K3-hu02 (antibody, V domains shown)
# VH: B1 VH with I29F, D31A
# VL: B1 VL
# notes: H6K3 with heavy chain I29F
# B3: hS4B6-H6K3-hu04 (antibody, V domains shown)
# VH: B1 VH with D31A, L34M
# VL: B1 VL
# notes: H6K3 with heavy chain L34M
# B4: hS4B6-H6K3-hu01 (antibody, V domains shown)
# VH: B1 VH with D27Y, D31A
# VL: B1 VL
# notes: H6K3 with heavy chain D27Y
# B5: hS4B6-H6K3-hu05 (antibody, V domains shown)
# VH: B1 VH with D31A, I48M
# VL: B1 VL
# notes: H6K3 with heavy chain I48M
# B6: K1G1 (antibody, V domains shown)
# VH: B1 VH with D31A, L34M, N66G, N77D
# VL: B1 VL with D28Y, G30S, S50Q, D56S, Y71F
# B7: K3G8 (antibody, V domains shown)
# VH: B1 VH with D31A, L34M, N66G, N77D, V99I, Y102L
# VL: B1 VL with D28Y, S50Q, D56S, Y71F
# B8: K3G5 (antibody, V domains shown)
# VH: B1 VH with D31A, L34M, N66G, N77D, S104T
# VL: B1 VL with D28Y, S50Q, D56S, Y71F
# B9: K4G4 (antibody, V domains shown)
# VH: B1 VH with D31A, L34M, N66G, N77D, Y102L
# VL: B1 VL with D28Y, D56S, Y71F
# B10: K2G2 (antibody, V domains shown)
# VH: B1 VH with D31A, L34M, N66G, N77D, V99I
# VL: B1 VL with D28Y, G30S, D56S, Y71F
# B11: K2G5 (antibody, V domains shown)
# VH: B1 VH with D31A, L34M, N66G, N77D, S104T
# VL: B1 VL with D28Y, G30S, D56S, Y71F
# B12: K3G6 (antibody, V domains shown)
# VH: B1 VH with D31A, L34M, E54D, N66G, N77D, V99I
# VL: B1 VL with D28Y, S50Q, D56S, Y71F
# B13: K4G10 (antibody, V domains shown)
# VH: B1 VH with D31A, L34M, E54D, N66G, N77D, V99I, S104T
# VL: B1 VL with D28Y, D56S, Y71F
# B14: K2G3 (antibody, V domains shown)
# VH: B1 VH with D31A, L34M, E54D, N66G, N77D
# VL: B1 VL with D28Y, G30S, D56S, Y71F
# B15: K4G2 (antibody, V domains shown)
# VH: B1 VH with D31A, L34M, N66G, N77D, V99I
# VL: B1 VL with D28Y, D56S, Y71F
# B16: K1G8 (antibody, V domains shown)
# VH: B1 VH with D31A, L34M, N66G, N77D, V99I, Y102L
# VL: B1 VL with D28Y, G30S, S50Q, D56S, Y71F
# B17: K2G4 (antibody, V domains shown)
# VH: B1 VH with D31A, L34M, N66G, N77D, Y102L
# VL: B1 VL with D28Y, G30S, D56S, Y71F
# B18: K3G9 (antibody, V domains shown)
# VH: B1 VH with D31A, L34M, N66G, N77D, V99I, Y102L, S104T
# VL: B1 VL with D28Y, S50Q, D56S, Y71F
# B19: K2G8 (antibody, V domains shown)
# VH: B1 VH with D31A, L34M, N66G, N77D, V99I, Y102L
# VL: B1 VL with D28Y, G30S, D56S, Y71F
# B20: K2G6 (antibody, V domains shown)
# VH: B1 VH with D31A, L34M, E54D, N66G, N77D, V99I
# VL: B1 VL with D28Y, G30S, D56S, Y71F
# B21: K4G8 (antibody, V domains shown)
# VH: B1 VH with D31A, L34M, N66G, N77D, V99I, Y102L
# VL: B1 VL with D28Y, D56S, Y71F
# B22: K2G10 (antibody, V domains shown)
# VH: B1 VH with D31A, L34M, E54D, N66G, N77D, V99I, S104T
# VL: B1 VL with D28Y, G30S, D56S, Y71F
# B23: K4G12 (antibody, V domains shown)
# VH: B1 VH with D31A, L34M, E54D, N66G, N77D, V99I, Y102L, S104T
# VL: B1 VL with D28Y, D56S, Y71F
# B24: K4G3 (antibody, V domains shown)
# VH: B1 VH with D31A, L34M, E54D, N66G, N77D
# VL: B1 VL with D28Y, D56S, Y71F
# B25: K3G2 (antibody, V domains shown)
# VH: B1 VH with D31A, L34M, N66G, N77D, V99I
# VL: B1 VL with D28Y, S50Q, D56S, Y71F
# B26: K4G6 (antibody, V domains shown)
# VH: B1 VH with D31A, L34M, E54D, N66G, N77D, V99I
# VL: B1 VL with D28Y, D56S, Y71F
# B27: K3G4 (antibody, V domains shown)
# VH: B1 VH with D31A, L34M, N66G, N77D, Y102L
# VL: B1 VL with D28Y, S50Q, D56S, Y71F
# B28: K2G7 (antibody, V domains shown)
# VH: B1 VH with D31A, L34M, N66G, N77D, V99I, S104T
# VL: B1 VL with D28Y, G30S, D56S, Y71F
# B29: K1G9 (antibody, V domains shown)
# VH: B1 VH with D31A, L34M, N66G, N77D, V99I, Y102L, S104T
# VL: B1 VL with D28Y, G30S, S50Q, D56S, Y71F
# B30: K4G5 (antibody, V domains shown)
# VH: B1 VH with D31A, L34M, N66G, N77D, S104T
# VL: B1 VL with D28Y, D56S, Y71F
# B31: K3G3 (antibody, V domains shown)
# VH: B1 VH with D31A, L34M, E54D, N66G, N77D
# VL: B1 VL with D28Y, S50Q, D56S, Y71F
# B32: K1G12 (antibody, V domains shown)
# VH: B1 VH with D31A, L34M, E54D, N66G, N77D, V99I, Y102L, S104T
# VL: B1 VL with D28Y, G30S, S50Q, D56S, Y71F
# B33: K3G7 (antibody, V domains shown)
# VH: B1 VH with D31A, L34M, N66G, N77D, V99I, S104T
# VL: B1 VL with D28Y, S50Q, D56S, Y71F
# B34: K3G1 (antibody, V domains shown)
# VH: B1 VH with D31A, L34M, N66G, N77D
# VL: B1 VL with D28Y, S50Q, D56S, Y71F
# B35: K4G7 (antibody, V domains shown)
# VH: B1 VH with D31A, L34M, N66G, N77D, V99I, S104T
# VL: B1 VL with D28Y, D56S, Y71F
# B36: K1G11 (antibody, V domains shown)
# VH: B1 VH with D31A, L34M, E54D, N66G, N77D, V99I, Y102L
# VL: B1 VL with D28Y, G30S, S50Q, D56S, Y71F
# B37: K4G1 (antibody, V domains shown)
# VH: B1 VH with D31A, L34M, N66G, N77D
# VL: B1 VL with D28Y, D56S, Y71F
# B38: K3G10 (antibody, V domains shown)
# VH: B1 VH with D31A, L34M, E54D, N66G, N77D, V99I, S104T
# VL: B1 VL with D28Y, S50Q, D56S, Y71F
# Molecular target: T1, hIL2-DM-his (human, UniProt P60568 21-153)
# T1 construct: expressed in ExpiCHO-S cells, nickel-column purified; also called hIL-2 mutein containing two point mutations K64G and N90R (with a his-tag); not shown: his-tag
# T1 sequence (P60568 21-153 K84G/N110R): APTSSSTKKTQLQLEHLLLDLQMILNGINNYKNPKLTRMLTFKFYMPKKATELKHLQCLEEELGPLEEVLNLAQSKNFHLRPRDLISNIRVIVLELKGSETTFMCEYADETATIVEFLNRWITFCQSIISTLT
# Assay: BLI ForteBio, Ab on Protein A sensor
# Procedure: (§1) After each cycle of association and dissociation steps, the sensor was regenerated by 10 mM glycine buffer (pH 1.5) and then stated with the next cycle of detection. After the detection, the association rate constant and dissociation rate constant between the antibody and antigen were fitted and extrapolated using the analytical software, and the value of affinity constant (KD) was calculated.
Binder,binding result,Binding Response (nm),Kd,koff,kon
B1,no binding (tested: 100 nM (highest antigen concentration)),–,–,–,–
B2,no binding (tested: 100 nM (highest antigen concentration)),–,–,–,–
B3,–,0.143 nm,34.6 nM,0.0149 s⁻¹,430000 M⁻¹ s⁻¹
B4,no binding (tested: 100 nM (highest antigen concentration)),–,–,–,–
B5,–,0.139 nm,39.4 nM,0.0152 s⁻¹,387000 M⁻¹ s⁻¹

# Molecular target: T1, hIL2-DM-his
# Assay: BLI ForteBio, Ab on Protein A sensor
# Remark: another data set of the same source
# Procedure: as §1
Binder,Kd,koff,kon
B6,1.43 nM,0.000491 s⁻¹,343000 M⁻¹ s⁻¹
B7,1.5 nM,0.000446 s⁻¹,297000 M⁻¹ s⁻¹
B8,3.72 nM,0.00124 s⁻¹,334000 M⁻¹ s⁻¹
B9,2.25 nM,0.00082 s⁻¹,364000 M⁻¹ s⁻¹
B10,1.33 nM,0.000562 s⁻¹,424000 M⁻¹ s⁻¹
B11,1.4 nM,0.000553 s⁻¹,396000 M⁻¹ s⁻¹
B12,2.13 nM,0.000844 s⁻¹,397000 M⁻¹ s⁻¹
B13,2.47 nM,0.000907 s⁻¹,367000 M⁻¹ s⁻¹
B14,1.32 nM,0.000512 s⁻¹,389000 M⁻¹ s⁻¹
B15,3.72 nM,0.00143 s⁻¹,384000 M⁻¹ s⁻¹
B16,0.778 nM,0.000291 s⁻¹,374000 M⁻¹ s⁻¹
B17,1.08 nM,0.000455 s⁻¹,421000 M⁻¹ s⁻¹
B18,1.49 nM,0.000529 s⁻¹,356000 M⁻¹ s⁻¹
B19,1.13 nM,0.000507 s⁻¹,448000 M⁻¹ s⁻¹
B20,1.33 nM,0.000593 s⁻¹,446000 M⁻¹ s⁻¹
B21,2.49 nM,0.000856 s⁻¹,344000 M⁻¹ s⁻¹
B22,0.973 nM,0.000418 s⁻¹,429000 M⁻¹ s⁻¹

Binder,Kd,koff,kon
B23,0.686 nM,0.000326 s⁻¹,476000 M⁻¹ s⁻¹
B24,3.08 nM,0.00108 s⁻¹,351000 M⁻¹ s⁻¹
B25,2.91 nM,0.00118 s⁻¹,407000 M⁻¹ s⁻¹
B26,2.33 nM,0.000994 s⁻¹,426000 M⁻¹ s⁻¹
B27,3 nM,0.00122 s⁻¹,408000 M⁻¹ s⁻¹
B28,1.35 nM,0.000489 s⁻¹,361000 M⁻¹ s⁻¹
B29,0.856 nM,0.000285 s⁻¹,333000 M⁻¹ s⁻¹
B30,2.7 nM,0.00113 s⁻¹,418000 M⁻¹ s⁻¹
B31,3.34 nM,0.00134 s⁻¹,400000 M⁻¹ s⁻¹
B32,0.927 nM,0.000396 s⁻¹,428000 M⁻¹ s⁻¹
B33,1.96 nM,0.000656 s⁻¹,336000 M⁻¹ s⁻¹
B34,4.4 nM,0.00186 s⁻¹,424000 M⁻¹ s⁻¹
B35,3.2 nM,0.00127 s⁻¹,396000 M⁻¹ s⁻¹
B36,0.928 nM,0.000373 s⁻¹,401000 M⁻¹ s⁻¹
B37,4.28 nM,0.00151 s⁻¹,352000 M⁻¹ s⁻¹
B38,1.46 nM,0.000585 s⁻¹,402000 M⁻¹ s⁻¹
